Laboratory results: patent US11135246B2, “Peptides and combination of peptides for use in immunotherapy against leukemias and other cancers” (Immatics Biotechnologies GmbH, priority 2017, dated 2021)

The substances below were run against HLA-A*01:01 (Homo sapiens, UniProt P04439, A114D/A174V/A182V/D101N/D185E/E176A/E190D/L180R/Q94H/R68K/S129P/T187R/V100A/V91M/W191G) (assay: MHC binding assay, UV-ligand exchange with β2m ELISA, HLA-A*01:01). Conditions: peptide exchange yield.
Source text: (§1) Candidate peptides for T cell based therapies according to the present invention were further tested for their MHC binding capacity (affinity). The individual peptide-MHC complexes were produced by UV-ligand exchange, where a UV-sensitive peptide is cleaved upon UV-irradiation, and exchanged with the peptide of interest as analyzed. Only peptide candidates that can effectively bind and stabilize the peptide-receptive MHC molecules prevent dissociation of the MHC complexes. To determine the yield of the exchange reaction, an ELISA was performed based on the detection of the light chain (β2m) of stabilized MHC complexes. The assay was performed as generally described in Rodenko et al. (Rodenko et al., 2006).
(§2) 96 well MAXISorp plates (NUNC) were coated over night with 2 ug/ml streptavidin in PBS at room temperature, washed 4× and blocked for 1 h at 37° C. in 2% BSA containing blocking buffer. Refolded HLA-A*02:01/MLA-001 monomers served as standards, covering the range of 15-500 ng/ml. Peptide-MHC monomers of the UV-exchange reaction were diluted 100-fold in blocking buffer. Samples were incubated for 1 h at 37° C., washed four times, incubated with 2 ug/ml HRP conjugated anti-β2m for 1 h at 37° C., washed again and detected with TMB solution that is stopped with […]. Absorption was measured at 450 nm. Candidate peptides that show a high exchange yield (preferably higher than 50%, most preferred higher than 75%) are generally preferred for a generation and production of antibodies or fragments thereof, and/or T cell receptors or fragments thereof, as they show sufficient avidity to the MHC molecules and prevent dissociation of the MHC complexes.
In the case of “1 (LTEGHSGNYY; listed as Homo sapiens) [compound 1]”, the Peptide exchange is reported as ““++++” (>75% = ++++)”.
With “3 (YINPAKLTPY; listed as Homo sapiens) [compound 3]” the Peptide exchange was ““++” (>20% = ++)”.
In the case of “4 (ALDQNKMHY; listed as Homo sapiens) [compound 4]”, the Peptide exchange is reported as ““+++” (>50 =+++)”.
With “5 (GTDVLSTRY; listed as Homo sapiens) [compound 5]” the Peptide exchange was ““+++” (>50 =+++)”.
With “6 (VTEGVAQTSFY; listed as Homo sapiens) [compound 6]” the Peptide exchange was ““++++” (>75% = ++++)”.
“7 (FMDSESFYY; listed as Homo sapiens) [compound 7]” was tested, and the Peptide exchange was ““+” (>10% = +)”.
In the case of “8 (STDSAGSSY; listed as Homo sapiens) [compound 8]”, the Peptide exchange is reported as ““++++” (>75% = ++++)”.
With “9 (YSHPQYSSY; listed as Homo sapiens) [compound 9]” the Peptide exchange was ““++” (>20% = ++)”.
“10 (YSDIGHLL; listed as Homo sapiens) [compound 10]” was tested, and the Peptide exchange was ““++” (>20% = ++)”.
For “11 (AAADHHSLY; listed as Homo sapiens) [compound 11]”, the Peptide exchange was ““+++” (>50 =+++)”.
In the case of “12 (ATDIVDSQY; listed as Homo sapiens) [compound 12]”, the Peptide exchange is reported as ““+++” (>50 =+++)”.
In the case of “13 (ITDIHIKY; listed as Homo sapiens) [compound 13]”, the Peptide exchange is reported as ““++++” (>75% = ++++)”.
In the case of “14 (TFDLTVVSY; listed as Homo sapiens) [compound 14]”, the Peptide exchange is reported as ““++” (>20% = ++)”.
With “15 (SVADIRNAY; listed as Homo sapiens) [compound 15]” the Peptide exchange was ““++” (>20% = ++)”.
In the case of “16 (WIGDKSFEY; listed as Homo sapiens) [compound 16]”, the Peptide exchange is reported as ““++” (>20% = ++)”.
In the case of “188 (YVDAGTPMY; listed as Homo sapiens) [compound 188]”, the Peptide exchange is reported as ““+++” (>50 =+++)”.
For “189 (VTEEPQRLFY; listed as Homo sapiens) [compound 189]”, the Peptide exchange was ““++++” (>75% = ++++)”.
“190 (HVDQDLTTY; listed as Homo sapiens) [compound 190]” was tested, and the Peptide exchange was ““++” (>20% = ++)”.
With “191 (ISEAGKDLLY; listed as Homo sapiens) [compound 191]” the Peptide exchange was ““+++” (>50 =+++)”.
In the case of “192 (RSDPGGGGLAY; listed as Homo sapiens) [compound 192]”, the Peptide exchange is reported as ““+++” (>50 =+++)”.
In the case of “193 (LTDSEKGNSY; listed as Homo sapiens) [compound 193]”, the Peptide exchange is reported as ““+++” (>50 =+++)”.
With “194 (YTDKKSIIY; listed as Homo sapiens) [compound 194]” the Peptide exchange was ““+++” (>50 =+++)”.
“195 (YSDKEFAGSY; listed as Homo sapiens) [compound 195]” was tested, and the Peptide exchange was ““++++” (>75% = ++++)”.
In the case of “196 (FTDIDGQVY; listed as Homo sapiens) [compound 196]”, the Peptide exchange is reported as ““+++” (>50 =+++)”.

Each substance was assayed against HLA-A*03:01 (Homo sapiens, UniProt P04439) (assay: MHC binding assay, UV-ligand exchange with β2m ELISA, HLA-A*03:01). Conditions: peptide exchange yield.
Source text: as §1, §2
In the case of “28 (VILESIFLK; listed as Homo sapiens) [compound 28]”, the Peptide exchange is reported as ““++” (>20% = ++)”.
In the case of “29 (RIYDEILQSK; listed as Homo sapiens) [compound 29]”, the Peptide exchange is reported as ““++” (>20% = ++)”.
For “30 (RTYGFVLTF; listed as Homo sapiens) [compound 30]”, the Peptide exchange was ““++” (>20% = ++)”.
“32 (KTSNIVKIK; listed as Homo sapiens) [compound 32]” was tested, and the Peptide exchange was ““++” (>20% = ++)”.
With “33 (SVFEGDSIVLK; listed as Homo sapiens) [compound 33]” the Peptide exchange was ““++” (>20% = ++)”.
With “34 (SVYSETSNMDK; listed as Homo sapiens) [compound 34]” the Peptide exchange was ““+++” (>50 = +++)”.
“35 (ATKSPAKPK; listed as Homo sapiens) [compound 35]” was tested, and the Peptide exchange was ““+++” (>50 = +++)”.
“36 (KAKAAAKPK; listed as Homo sapiens) [compound 36]” was tested, and the Peptide exchange was ““++” (>20% = ++)”.
“37 (KAKKPAGAAK; listed as Homo sapiens) [compound 37]” was tested, and the Peptide exchange was ““+++” (>50 = +++)”.
“38 (KARKSAGAAK; listed as Homo sapiens) [compound 38]” was tested, and the Peptide exchange was ““+++” (>50 = +++)”.
For “40 (RSKEYIRKK; listed as Homo sapiens) [compound 40]”, the Peptide exchange was ““+” (>10% = +)”.
With “41 (SVAHLLSKY; listed as Homo sapiens) [compound 41]” the Peptide exchange was ““++” (>20% = ++)”.
In the case of “42 (SVSSSTHFTR; listed as Homo sapiens) [compound 42]”, the Peptide exchange is reported as ““++” (>20% = ++)”.
For “43 (KLMETSMGF; listed as Homo sapiens) [compound 43]”, the Peptide exchange was ““++” (>20% = ++)”.
In the case of “44 (KVYDPVSEY; listed as Homo sapiens) [compound 44]”, the Peptide exchange is reported as ““++” (>20% = ++)”.
With “45 (VVFPFPVNK; listed as Homo sapiens) [compound 45]” the Peptide exchange was ““+++” (>50 = +++)”.
In the case of “46 (RVFPSPMRI; listed as Homo sapiens) [compound 46]”, the Peptide exchange is reported as ““++” (>20% = ++)”.
For “47 (SVLDLSVHK; listed as Homo sapiens) [compound 47]”, the Peptide exchange was ““++” (>20% = ++)”.
For “48 (RIKPPGPTAVPK; listed as Homo sapiens) [compound 48]”, the Peptide exchange was ““+++” (>50 = +++)”.
With “49 (GLLEEALFY; listed as Homo sapiens) [compound 49]” the Peptide exchange was ““++” (>20% = ++)”.
In the case of “51 (ASTTVLALK; listed as Homo sapiens) [compound 51]”, the Peptide exchange is reported as ““++” (>20% = ++)”.
In the case of “52 (KAFNQSSTLTK; listed as Homo sapiens) [compound 52]”, the Peptide exchange is reported as ““+++” (>50 = +++)”.
For “208 (KLNPQQAPLY; listed as Homo sapiens) [compound 208]”, the Peptide exchange was ““++” (>20% = ++)”.
In the case of “209 (KTLPAMLGTGK; listed as Homo sapiens) [compound 209]”, the Peptide exchange is reported as ““++” (>20% = ++)”.
With “210 (RMYSQLKTLQK; listed as Homo sapiens) [compound 210]” the Peptide exchange was ““+++” (>50 = +++)”.
In the case of “211 (ATYNKQPMYR; listed as Homo sapiens) [compound 211]”, the Peptide exchange is reported as ““+++” (>50 = +++)”.
For “212 (LLWHWDTTQSLK; listed as Homo sapiens) [compound 212]”, the Peptide exchange was ““+” (>10% = +)”.
With “213 (RVYNIYIRR; listed as Homo sapiens) [compound 213]” the Peptide exchange was ““++” (>20% = ++)”.
For “214 (ATGAATPKK; listed as Homo sapiens) [compound 214]”, the Peptide exchange was ““+++” (>50 = +++)”.
For “215 (KATGAATPK; listed as Homo sapiens) [compound 215]”, the Peptide exchange was ““++” (>20% = ++)”.
In the case of “216 (RIKAPSRNTIQK; listed as Homo sapiens) [compound 216]”, the Peptide exchange is reported as ““++” (>20% = ++)”.
In the case of “217 (TTVPHVFSK; listed as Homo sapiens) [compound 217]”, the Peptide exchange is reported as ““++” (>20% = ++)”.
For “218 (RVLTGVFTK; listed as Homo sapiens) [compound 218]”, the Peptide exchange was ““++” (>20% = ++)”.
For “219 (HSYSSPSTK; listed as Homo sapiens) [compound 219]”, the Peptide exchange was ““+++” (>50 = +++)”.
In the case of “220 (SISNLVFTY; listed as Homo sapiens) [compound 220]”, the Peptide exchange is reported as ““++” (>20% = ++)”.
In the case of “221 (LLNRHILAH; listed as Homo sapiens) [compound 221]”, the Peptide exchange is reported as ““+++” (>50 = +++)”.

These substances were tested against HLA-A*02:01 (Homo sapiens, UniProt P04439, D140Y/D185E/D98H/E176V/E277Q/G131W/G231S/I119V/I121R/I166T/I218V/L300P/L318F/N151K/N90K/P208A/P217A/Q86G/Q94H/R138H/R169H/T345S) (assay: MHC binding assay, UV-ligand exchange with β2m ELISA, HLA-A*02:01). Conditions: peptide exchange yield.
Source text: as §1, §2
“17 (KAYNRVIFV; listed as Homo sapiens) [compound 17]” was tested, and the Peptide exchange was ““+++” (>50 = +++)”.
With “18 (YLLPSVVLL; listed as Homo sapiens) [compound 18]” the Peptide exchange was ““++++” (>75% = ++++)”.
In the case of “19 (SLFEGIYTI; listed as Homo sapiens) [compound 19]”, the Peptide exchange is reported as ““++++” (>75% = ++++)”.
With “20 (FSLEDLVRI; listed as Homo sapiens) [compound 20]” the Peptide exchange was ““++” (>20% = ++)”.
In the case of “21 (FLFDKLLLI; listed as Homo sapiens) [compound 21]”, the Peptide exchange is reported as ““++++” (>75% = ++++)”.
With “22 (ILHAQTLKI; listed as Homo sapiens) [compound 22]” the Peptide exchange was ““+++” (>50 = +++)”.
For “23 (FAFSGVLRA; listed as Homo sapiens) [compound 23]”, the Peptide exchange was ““++” (>20% = ++)”.
For “24 (KLGPVAVSI; listed as Homo sapiens) [compound 24]”, the Peptide exchange was ““++++” (>75% = ++++)”.
With “25 (YLNEKSLQL; listed as Homo sapiens) [compound 25]” the Peptide exchange was ““++++” (>75% = ++++)”.
“26 (SLYVQQLKI; listed as Homo sapiens) [compound 26]” was tested, and the Peptide exchange was ““++++” (>75% = ++++)”.
